According to patent publication US20230183354A1 (IMMIOS HOLDING B V, published 2023):
Blank lines part the entries; values can stand above or below the molecule they belong to.

Tests used:
[1] = biological target: human CD103 (integrin Alpha-E) / human integrin Beta-7 heterodimer on cells (human) (UniProt P38570); assay: flow cytometry, tumor digest OC433, non-labeled control Fab with secondary anti-Fab reagent (APC); secondary antibody alone Q2 4,65
[2] = biological target: human CD103 (integrin Alpha-E) / human integrin Beta-7 heterodimer on cells (human) (UniProt P38570); assay: flow cytometry, tumor digest OC433, non-labeled control Fab with secondary anti-Fab reagent (APC); secondary antibody alone Q3 2,44
[3] = biological target: human CD103 (integrin Alpha-E) / human integrin Beta-7 heterodimer on cells (human) (UniProt P38570); assay: flow cytometry competition on CD103+CD8+ T cells; pre-incubation with unlabeled MCA708 (f4); table n=1
[4] = biological target: human CD103 (integrin Alpha-E) / human integrin Beta-7 heterodimer on cells (human) (UniProt P38570); assay: flow cytometry competition on CD103+CD8+ T cells; pre-incubation with unlabeled 07A; table n=1
[5] = biological target: human CD103 (integrin Alpha-E) / human integrin Beta-7 heterodimer on cells (human) (UniProt P38570); assay: flow cytometry, tumor digest OC433, CD3 positive cells; Control panel Q3 2,12
[6] = biological target: human CD103 (integrin Alpha-E) / human integrin Beta-7 heterodimer on cells (human) (UniProt P38570); assay: flow cytometry competition on CD103+CD8+ T cells; pre-incubation with unlabeled IgG (f2); table n=1
[7] = biological target: human CD103 (integrin Alpha-E) / human integrin Beta-7 heterodimer on cells (human) (UniProt P38570); assay: flow cytometry, tumor digest OC433, CD3 positive cells; Control panel Q2 0,53
[8] = biological target: human CD103 (integrin Alpha-E) / human integrin Beta-7 heterodimer on cells (human) (UniProt P38570); assay: flow cytometry competition on CD103+CD8+ T cells; pre-incubation with unlabeled MCA708 (f4); table n=2
[9] = biological target: human CD103 (integrin Alpha-E) / human integrin Beta-7 heterodimer on cells (human) (UniProt P38570); assay: flow cytometry competition on CD103+CD8+ T cells; pre-incubation with unlabeled 01A; table n=2
[10] = biological target: human CD103 (integrin Alpha-E) / human integrin Beta-7 heterodimer on cells (human) (UniProt P38570); assay: flow cytometry competition on CD103+CD8+ T cells; pre-incubation with unlabeled 06A; table n=2
[11] = biological target: human CD103 (integrin Alpha-E) / human integrin Beta-7 heterodimer on cells (human) (UniProt P38570); assay: flow cytometry competition on CD103+CD8+ T cells; pre-incubation with unlabeled 01A; table n=1
[12] = biological target: human CD103 (integrin Alpha-E) / human integrin Beta-7 heterodimer on cells (human) (UniProt P38570); assay: flow cytometry competition on CD103+CD8+ T cells; pre-incubation with unlabeled 02A; table n=1
[13] = biological target: human CD103 (integrin Alpha-E) / human integrin Beta-7 heterodimer on cells (human) (UniProt P38570); assay: flow cytometry competition on CD103+CD8+ T cells; pre-incubation with unlabeled IgG (f2); table n=2
[14] = biological target: human CD103 (integrin Alpha-E) / human integrin Beta-7 heterodimer on cells (human) (UniProt P38570); assay: flow cytometry competition on CD103+CD8+ T cells; pre-incubation with unlabeled 06A; table n=1
[15] = biological target: human CD103 (integrin Alpha-E) / human integrin Beta-7 heterodimer on cells (human) (UniProt P38570); assay: flow cytometry competition on CD103+CD8+ T cells; pre-incubation with unlabeled 07A; table n=2
[16] = biological target: human CD103 (integrin Alpha-E) / human integrin Beta-7 heterodimer on cells (human) (UniProt P38570); assay: flow cytometry competition on CD103+CD8+ T cells; pre-incubation with unlabeled 05A; table n=1
[17] = biological target: human CD103 (integrin Alpha-E) / human integrin Beta-7 heterodimer on cells (human) (UniProt P38570); assay: flow cytometry competition on CD103+CD8+ T cells; pre-incubation with unlabeled 03A; table n=2
[18] = biological target: human CD103 (integrin Alpha-E) / human integrin Beta-7 heterodimer on cells (human) (UniProt P38570); assay: flow cytometry competition on CD103+CD8+ T cells; pre-incubation with unlabeled BERACT; table n=1
[19] = biological target: human CD103 (integrin Alpha-E) / human integrin Beta-7 heterodimer on cells (human) (UniProt P38570); assay: flow cytometry competition on CD103+CD8+ T cells; pre-incubation with unlabeled 03A; table n=1
[20] = biological target: human CD103 (integrin Alpha-E) / human integrin Beta-7 heterodimer on cells (human) (UniProt P38570); assay: flow cytometry competition on CD103+CD8+ T cells; pre-incubation with unlabeled BERACT; table n=2
[21] = biological target: human CD103 (integrin Alpha-E) / human integrin Beta-7 heterodimer on cells (human) (UniProt P38570); assay: flow cytometry competition on CD103+CD8+ T cells; pre-incubation with unlabeled 02A; table n=2
[22] = biological target: human CD103 (integrin Alpha-E) / human integrin Beta-7 heterodimer on cells (human) (UniProt P38570); assay: flow cytometry competition on CD103+CD8+ T cells; pre-incubation with unlabeled 05A; table n=2
[23] = biological target: human CD103 (integrin Alpha-E) / human integrin Beta-7 heterodimer on cells (human) (UniProt P38570); assay: flow cytometry, tumor digest OC433, AF647-conjugated control Fab, direct read-out
murine CD103 = biological target: T1, murine CD103 (mouse, UniProt Q60677 20-1167); assay: flow cytometry on mouse spleen and thymus cells
T1 construct: whole, on cells; also called murine CD103+ T cells; mouse CD103
T1 sequence (looked up): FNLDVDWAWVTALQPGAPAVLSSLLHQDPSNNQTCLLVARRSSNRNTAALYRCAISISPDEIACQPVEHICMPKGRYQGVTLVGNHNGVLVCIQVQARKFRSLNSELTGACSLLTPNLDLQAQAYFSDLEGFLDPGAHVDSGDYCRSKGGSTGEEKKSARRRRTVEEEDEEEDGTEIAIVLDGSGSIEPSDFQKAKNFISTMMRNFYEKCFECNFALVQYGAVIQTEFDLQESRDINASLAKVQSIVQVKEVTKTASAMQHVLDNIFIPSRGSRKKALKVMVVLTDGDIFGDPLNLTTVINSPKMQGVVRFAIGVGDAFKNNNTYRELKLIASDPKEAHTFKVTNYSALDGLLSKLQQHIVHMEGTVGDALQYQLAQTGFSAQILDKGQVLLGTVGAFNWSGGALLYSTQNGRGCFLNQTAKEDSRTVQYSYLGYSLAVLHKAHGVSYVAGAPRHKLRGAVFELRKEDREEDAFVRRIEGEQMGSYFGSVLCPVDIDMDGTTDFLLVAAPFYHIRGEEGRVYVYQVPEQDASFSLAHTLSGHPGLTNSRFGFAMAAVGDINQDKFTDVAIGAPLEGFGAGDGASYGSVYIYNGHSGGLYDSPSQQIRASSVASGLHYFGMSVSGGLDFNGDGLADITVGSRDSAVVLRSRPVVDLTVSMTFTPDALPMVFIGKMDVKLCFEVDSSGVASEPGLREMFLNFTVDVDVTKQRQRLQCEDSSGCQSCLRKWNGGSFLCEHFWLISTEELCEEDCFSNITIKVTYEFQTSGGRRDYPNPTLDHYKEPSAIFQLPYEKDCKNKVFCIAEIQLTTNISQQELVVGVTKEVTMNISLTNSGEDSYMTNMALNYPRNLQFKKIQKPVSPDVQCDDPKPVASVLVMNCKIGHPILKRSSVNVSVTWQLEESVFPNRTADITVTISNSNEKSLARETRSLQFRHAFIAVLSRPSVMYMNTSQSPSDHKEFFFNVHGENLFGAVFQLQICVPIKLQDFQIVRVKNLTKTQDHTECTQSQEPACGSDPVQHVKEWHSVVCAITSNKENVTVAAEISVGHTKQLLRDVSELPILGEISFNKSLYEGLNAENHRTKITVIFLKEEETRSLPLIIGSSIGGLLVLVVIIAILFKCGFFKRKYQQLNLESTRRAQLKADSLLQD
Experimental: Additional aliquots were stained with relevant isotype controls or as fluorescence minus one controls (“FMO” controls are cells stained with all the fluorophores minus one fluorophore; the relevant isotype controls contain either a directly labeled unspecific isotype antibody or an unspecific isotype antibody combined with secondary detection reagent). Percentage binding of fluorescently labeled mAbs was determined using flow cytometry. Maximum binding was set at 100%. […] Data analysis was performed with FlowJo v10 (Tree Star) and surface receptor levels were expressed as mean fluorescent intensity (MFI).

[24] = biological target: T2, human integrin Alpha-4 / human integrin Beta-7 heterodimer on CHO-K1 cells (human, UniProt P13612 34-1032; P26010 20-798); assay: cell ELISA on CHO.K1-humanAlpha4/beta7 cells, abs 450-610
T2 construct: Used as the control for reactivity with hBeta7; also called hAlpha4/hBeta7; CHO.K1-hAlpha4/hBeta7

[25] = biological target: T3, human CD103 (integrin Alpha-E) / human integrin Beta-7 heterodimer on cells (human, UniProt P38570 19-1179; P26010 20-798); assay: cell ELISA on CHO.K1-humanCD103/beta7 cells, abs 450-610
T3 construct: The same id is used for native CD103 on human CD103+CD8+ T cells (tumor digests, TGF-beta induced T cells); the assay field tells which cells; also called hCD103/hBeta7; CHO.K1-hCD103/hBeta7

Molecule: CD103 (Ber-ACT8) antibody (BD)
% binding of the fluorescently labeled mAb (IgG pre-incubation = 100) [3]: 115% | % binding of the fluorescently labeled mAb (IgG pre-incubation = 100) [4]: 27.2% | % of CD3 positive cells in Q3 (CD8- CD103+) [5]: 7.75% | % binding of the fluorescently labeled mAb (IgG pre-incubation = 100) [6]: 100% | % of CD3 positive cells in Q2 (CD8+ CD103+) [7]: 13.4% | % binding of the fluorescently labeled mAb (IgG pre-incubation = 100) [8]: 109% | % binding of the fluorescently labeled mAb (IgG pre-incubation = 100) [9]: 2.3% | % binding of the fluorescently labeled mAb (IgG pre-incubation = 100) [10]: 103% | % binding of the fluorescently labeled mAb (IgG pre-incubation = 100) [11]: 0.9% | % binding of the fluorescently labeled mAb (IgG pre-incubation = 100) [12]: 1.4% | % binding of the fluorescently labeled mAb (IgG pre-incubation = 100) [13]: 100% | % binding of the fluorescently labeled mAb (IgG pre-incubation = 100) [14]: 96.6% | % binding of the fluorescently labeled mAb (IgG pre-incubation = 100) [15]: 29.2% | % binding of the fluorescently labeled mAb (IgG pre-incubation = 100) [16]: 50.9% | % binding of the fluorescently labeled mAb (IgG pre-incubation = 100) [17]: 101% | % binding of the fluorescently labeled mAb (IgG pre-incubation = 100) [18]: 1.9% | % binding of the fluorescently labeled mAb (IgG pre-incubation = 100) [19]: 97% | % binding of the fluorescently labeled mAb (IgG pre-incubation = 100) [20]: 3.5% | % binding of the fluorescently labeled mAb (IgG pre-incubation = 100) [21]: 2.9% | % binding of the fluorescently labeled mAb (IgG pre-incubation = 100) [22]: 60.6%

B1: hCD103.02A (antibody, V domains shown)
VH: EVQLQESGPSLVKPSQTLSLTCSVTGDSITSGYWNWIRKFPGNKLEYMGYITYSGSTYYNPSLKSRISITRDTSKNQYYLQFNSVTTEDTATYYCARGYYGSDAMDYWGQGTSVTVSS
VL: DIVMTQSHKFMSTSVGDRVSITCKASQDVSTAVAWYQQKPGQSPKLLIYSASYRYTGVPDRFTGSGSGTDFTFTISSVQAEDLAVYYCQQHYSPPWTFGGGTKLEIK
notes: also called clone 02A
binding result (murine CD103): no binding | binding result [24]: no binding | EC50 (read off the curve) [25]: ~10 ng/mL

Second part, the molecule after the results:

% of cells in Q2 (CD8+ CD103+) [1]: 4.64% | % of cells in Q3 (CD8- CD103+) [2]: 3.71%
Molecule: hFab isotype

% of cells in Q2 (CD8+ CD103+) [23]: 2.58% | % of cells in Q3 (CD8- CD103+) [23]: 1.29%
Molecule: Alexa647.mFab control
